Target: F-actin polymerized from rabbit skeletal muscle G-actin, stabilized with phalloidin (rabbit), P68135
Assay: co-sedimentation
Settings: remark: other sources report otherwise

Kd: 2900 nM
B1: αE-catenin homodimer, P26231 1-906 (natural protein)
chain: MTAVHAGNINFKWDPKSLEIRTLAVERLLEPLVTQVTTLVNTNSKGPSNKKRGRSKKAHVLAASVEQATENFLEKGDKIAKESQFLKEELVVAVEDVRKQGDLMKSAAGEFADDPCSSVKRGNMVRAARALLSAVTRLLILADMADVYKLLVQLKVVEDGILKLRNAGNEQDLGIQYKALKPEVDKLNIMAAKRQQELKDVGNRDQMAAARGILQKNVPILYTASQACLQHPDVAAYKANRDLIYKQLQQAVTGISNAAQATASDDAAQHQGGSGGELAYALNNFDKQIIVDPLSFSEERFRPSLEERLESIISGAALMADSSCTRDDRRERIVAECNAVRQALQDLLSEYMGNAGRKERSDALNSAIDKMTKKTRDLRRQLRKAVMDHVSDSFLETNVPLLVLIEAAKNGNEKEVKEYAQVFREHANKLIEVANLACSISNNEEGVKLVRMSASQLEALCPQVINAALALAAKPQSKLAQENMDLFKEQWEKQVRVLTDAVDDITSIDDFLAVSENHILEDVNKCVIALQEKDVDGLDRTAGAIRGRAARVIHVVTSEMDNYEPGVYTEKVLEATKLLSNTVMPRFTEQVEAAVEALSSDPAQPMDENEFIDASRLVYDGIRDIRKAVLMIRTPEELDDSDFETEDFDVRSRTSVQTEDDQLIAGQSARAIMAQLPQEQKAKIAEQVASFQEEKSKLDAEVSKWDDSGNDIIVLAKQMCMIMMEMTDFTRGKGPLKNTSDVISAAKKIAEAGSRMDKLGRTIADHCPDSACKQDLLAYLQRIALYCHQLNICSKVKAEVQNLGGELVVSGVDSAMSLIQAAKNLMNAVVQTVKASYVASTKYQKSQGMASLNLPAVSWKMKAPEKKPLVKREKQDETQTKIKRASQKKHVNPVQALSEFKAMDSI
